This passage reports stoichiometry N results from publication PMC3784749.

The stoichiometry N is a count of units in the complex or per binding partner.

In the experiment the target is glutathione S-transferase from Schistosoma japonicum (Schistosoma japonicum). Put plainly: SAXS; GST alone in 20 mM phosphate, 80 mM NaCl, pH 8.0, 20 °C; shape reconstruction (GASBOR, DAMAVER) superimposed on crystal structure 1UA5.

Substance “glutathione S-transferase from Schistosoma japonicum (enzyme)” had a stoichiometry N of 2.
